Tests used:
Assay in all cases: SEC; analytical size exclusion on Superose 6 10/300 GL, AKTA FPLC, 4°C, 25 mM sodium phosphate, 150 mM NaCl, pH 7.5, 0.4 ml/min; molecular weights estimated with high molecular weight calibration kit; 200 μg to 1 mg protein loaded
[1] = target: K1H depolymerase (coliphage K1H)
[2] = target: K1F depolymerase (coliphage K1F)
[3] = target: K5 depolymerase (coliphage K1-5)
[4] = target: the molecule itself

K1H depolymerase (enzyme)
stoichiometry N [1]: 3

K1F depolymerase (enzyme)
stoichiometry N [2]: 3

K5 depolymerase (enzyme)
stoichiometry N [3]: 3

B1: K30 gp41 (enzyme)
chain: MDQDIKTVIQYPVGATEFDIPFDYLSRKFVRVSLVTGDNRRLLSNITEYRYVSKTRVKLLVETAGFDRVEIRRFTSASERIVDFSDGSVLRAADLNVSQIQSAHIAEEARDAALMAMPQDDVGNLDARNRRIVRLAPGIDSTDAINKNQLDTTLGEAGGILSQVKDTQKDIQNYIQKFGDDTAMVRGVNWVYNGGSAIGGETSFIIDKSAPVFAVPYIEVNGSRQFRDWQYEYDPATKRVTLVKPLEAGDFVVCLTTENKLPLEDLLASTGGADSIGKAGGGTVQDGLDATIHGTDVHRDTVTPGKLDTLLVYNGTNAGRDLRGHEFVMPHGTFSATRILRTRGISAAESKYTGFTWRGQGSSFTKLVHPATGGQGDIAFMDYLKDVTMSGFMMDNTALGQGTSNQDTRNGQFWIRHSVDSYFDDLRFAGADALTFCLDHCKNIYSTNLKVDYQLRYPTGTGKSPLIVGDYSEQCMFIGGYVKTVSPDGTIKYAGDLADNDQADDTKWAFINLYGLTFEQKPNSNACMWQEGEGAPSNAHFIGMNYINNGVGHGVSEKAVGTDIGSTFRQAQVRAVWNRAEYISIGSHFINNDAKYPAGTGGAGTAAAGGVHNDNAKFTSLVGDYFRGNFADYTDYTGASGVNPENSTHITNAKLTSIIRTSSSSTSQHLAIVNCQLTSAGRISGGGNGRLHVSVVASHCVGPLGQFGHGQSETYLDVINSTFTAAGSTEAMITQSGVGNISFANSTFRDYIRVVDGSHTRVTFRNCTFYTCTFTEDDRKARYVNCRFISCTDAPDSFGLNFAADSLDRPSSLRVNVTLTAGGSYTFPAWVLQGRGAYFINVGGNGANLPACAGIIGKSSATGSGVWTPQWESTPSSIVVSWPSNGYITVTATTAGNYTIGVH
stoichiometry N [4]: 3

B2: K30 gp42 (natural protein)
chain: MLDKLNQPKGSTIGVLKDGRTTQEAIDELTNDVTGSITTTRYASSASQALFPKLIDKMTAYRHGVSGFQDKFRIYGYGSSVGNGATIGGNSSPNTPVAKFFEHFQRTVNKAGIYPFEYSNKSVDGSNINDFLNREWPATVATGVFPDLAVFAYGMNDFPSAQYNAGMTFGANGFKQRLRNAIQKVRDAGGDVVLLTTPHPNIEEYSWELPSSIDMVWPQFAAKPVAGDVLIPPVSQSNVSFDFMGKRITQGVRFLRGNDAMREVAVEMGCVLIDVEKYWFEAVGKYGNVLLFDRVPAMQTVHPNLLGHQQSYWRAIEEFFNNVDSSGWIAPDAKLNQTLDVGGNALNPAKMEADVDLQANGIRQRAFVRRDKSGRVMEELTQDSRVKRTSYTVSDPTVSAPGYSLTWDEWFTRTKGLFTSGETLGIPVNNRTEGRLLVTAWISGQTGWTQLEDYLVSNREGVVLVSKIGSLDNTPPAGGTGTNGQRLFTVSTSANNVVVNILSDNATVKFKLDTFGA
stoichiometry N [4]: 3
